Experimental data from patent US20150132779A1.

Biological target: M1-linked polyubiquitin chains (UniProt P0CG48)
Assay: cell-based or functional assay

Ub-ProT assay: length of chain protected from trypsinization (ubiquitin molecules): < 16
Substance: trypsin-resistant tandem ubiquitin binding entity (TR-TUBE) (designed binder)
